From the nanobody polyreactivity screen of Harvey et al. (2022)

Experiment: yeast display, Sf9 membrane polyspecificity reagent, FACS + sequencing; frameworks hold sequencing errors
Method in brief: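 In a synthetic yeast display library (Saccharomyces cerevisiae BJ5465), nanobody expression was induced with galactose for 36–48 hours. FACS gates were set low and high (top ~1%) using anti-HA fluorescence for expression and streptavidin fluorescence for binding of the Sf9 membrane reagent. Each polyreactivity label is drawn from the gate of origin.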

Sequence | polyreactivity (PSR sort gate)
QVQLVESGGGLFQAGGSLRVSCAASGRTFVNYAMGWYRQAAGKERELVAAISTSGGSTYYADSVKGRFTISRDNAKNTDYYQRNSLKPEDTAVYYCKKVRYLAVNLGQFTFDYWGQGTQGTVSS | low polyreactivity
QVQLVESGGGLFQAGGSLSLRCAASGSIFEVNALGWDRQGPGKERELVAAISQRGTRTYYADSVKGRFTMSRDYAKNTVYLQMNILKPEDTAVYYCNRGGWRQYDSWGQGTQVTVST | high polyreactivity
QVQLVESGGGLFQAGRSLPLSCAASGIIFTQYPMGWYRQAPGKERELVAAISGSGGRTYYADSVKGRFSISRDNEKNTVYLQMKILKPEDTAVYYCAARYARYGNDYWGQCTQVTVSS | high polyreactivity
QVQLVESGGGLFQAGRSLRLICAASGRIFNQYPMGWSRQAPGKETELVAAIRRSSDSTYYADSVKGRFTISRDNAKNTVYLQMNSLTPEDSAVYYCATDGYRRWVWMEYWGQGTQVTVSS | low polyreactivity
QVQLVESGGGLFQARGSLRLSCAASGRTFWYYTMGWYRPAPGKERELVASITYRGGSTYYADSVKGRFTISRDNAKITVYLQMNSLKREDTALYYCYARYKRYSYDYWGQGTQVTVSS | high polyreactivity
QVQLVESGGGLFQEGGSLRLSCAASGRTLRYYAMGWYRQAPGKVRELVAAISSGGTTNYADSVKGRFTISRDNAKNTVYFQMKSLKPEDTAVYYFAASYRRFRFSHYDYWGQVTQVTVSS | high polyreactivity
QVQLVESGGGLFQEGGSLRLSCAASGSIFEPYVMGWYRQAPGKESELVAAIRQTGGSTYYADSVKGRFTISRDNAKNTVYLQMNSLKPEDTAVYYCNAEQNPSGLYDYRGVEGEMGYWGQGTQVTVSS | low polyreactivity
QVQLVESGGGLGHAGGSLRLSCAASGFTYTAYAMGWYRQAPGKERELVPSISKSDGSTYYADSVKGRFTISRDNAKNTVYLQMKSVKPEDTAVYYCATGRISRDFHRVQDLGYDYWGQGTQVNVSS | low polyreactivity
QVQLVESGGGLGQAGGSLRLRCAASGSTFQYYAMGWYRQAPGKERELVAAITHSGTRTYYADSVKGRFTISRDNAKNTVYLQMNSLKPVDTAVYYCAARGYGKYDYWGQGTQVTVSS | high polyreactivity
QVQLVESGGGLGQAGGSLRLSCAASGFTFGNYAMGWYRQAPGKERELVAVISYSTGSTNYADSVKGRFTISRDNAKNTVYLQMNSLKPEDTAVYYCAKRYRSYYQGYGYWGQGTQVTVSS | high polyreactivity
QVQLVESGGGLGQAGGSLRLSCAASGFTFYAYVMGWYRQAPGKESELVAAISGSGSSTYYADSVKGRFTISRDNAKNTVDLEMNSLKPEDTAVYYCGAPQLYQYGGFGYWGQGTQVTVSS | high polyreactivity
QVQLVESGGGLGQAGGSLRLSCAASGRIFDVYAMGWYRQAPGKERELVATISSSGGATYYADSVKGRFTISRDNAKYTVYLQMNSLKPEDTAVYYCATTYRPTFRRHYNYWGQGTQVTVSS | low polyreactivity
QVQLVESGGGLGQAGGSLRLSCAASGRIFDYYAMGWYRQAPGKERELVATITSGSRTYYADSVKGRFTISRDNAKNTVYLQMNSLNPEDTAVYSCAAVKRSYYKGEYNAYDYWGQGTQVTVSS | high polyreactivity
QVQLVESGGGLGQAGGSLRLSCAASGRIFRDYAMGWYRQAPGKERQLVAAISWSGGSSYYADSVKGRFTISRDNAKNTVDLQMNSLKQEDTAVYYCAVEYYGGDSYRYDYWGQGTQVTVSS | low polyreactivity
QVQLVESGGGLGQAGGSLRLSCAASGRIFSYNSMGWYRPATGKERELVAAISTSGGSTYYADSVKGRFTISRDYAKNTVYLQLISLKPEDTAVYYCNARAPFSSAQPTFLIDDGYHWGQGTQETVSS | low polyreactivity
QVQLVESGGGLGQAGGSLRLSCAASGRTFLFNAMGWYRQAPGKDRELVAAISSGGGSTYYADSVKGRFTISRDNAKNTDYLEMNSLKPEDTAVYFCAAYPYYYRYNYWGQGTQVTVSS | high polyreactivity
QVQLVESGGGLGQAGGSLRLSCAASGRTFPIYVMGWYRQAPGKERELVASISASGVRTYFADSVKGRFTISRDNAKNTVYLQMNSLKPEDTAVYYCATQVRRWYSARSPNVRFDYWGQGTQVTVSS | high polyreactivity
